According to article PMC7397465, “Crystal structure of the Rab-binding domain of Rab11 family-interacting protein 2” (Acta Crystallographica. Section F, Structural Biology …, 2020):

Molecular target: the molecule itself
Assay: crystal structure; vapor diffusion, 298 K; protein 6 mg/ml in 150 mM NaCl, 10 mM Tris-HCl, 1 mM DTT pH 7.5; reservoir 0.01 M cobalt chloride, 0.1 M sodium acetate pH 4.8, 1 M 1,6-hexanediol; 2.3 A; four monomers in the asymmetric unit

B1: Rab-binding domain of Rab11 family-interacting protein 2 (domain or fragment, Homo sapiens)
chain: GSHMSNPFDATAGYRSLTYEEVLQELVKHKELLRRKDTHIRELEDYIDNLLVRVMEETPSILRVPYEPSRKAGKFSNS
notes: not FIP2 residues by the stated limits 439-512; Expression vector pNIC-Bsa4 with a TEV protease cleavage site; tag cleaved with TEV before crystallization; In the crystal at least the first seven and the last 15 residues are disordered (monomers seen from 445-451 to 496 or 497); also called FIP2; RBD of FIP2; source: Escherichia coli BL21(DE3), purified (nickel agarose, TEV cleavage, Mono Q, …)
stoichiometry N: 4
